Assay results taken from paper PMC4118869 (PLoS ONE, 2014).

Legend:
[1] = molecular target: recombinant H9-HA, A/HongKong/1073/99 (H9N2) (Influenza A virus A/Hong Kong/1073/99 …, UniProt Q9ICY5, strain); assay: SPR; settings: both partners purified
[2] = molecular target: T1, recombinant H7-HA, A/Netherlands/219/2003 (H7N7) (Influenza A virus …, UniProt Q6VMK1); assay: SPR; settings: both partners purified
T1 construct: source: bought: Protein Sciences

[3] = molecular target: T2, recombinant H2-HA, A/Japan/305/57 (H2N2) (Influenza A virus A/Japan/305/1957 …, UniProt P03451, strain); assay: SPR; settings: both partners purified
T2 construct: source: bought: E-Enzymes (list of antigens) or Protein Sciences (SPR methods)

[4] = molecular target: T3, recombinant H1-HA (H1N1)pdm09 hemagglutinin (Influenza A virus (H1N1)pdm09; …, UniProt C3W5S1, strain); assay: SPR; settings: both partners purified
T3 construct: source: bought: Protein Sciences

[5] = molecular target: T4, recombinant H2-HA, A/Japan/305/57 (H2N2) (Influenza A virus A/Japan/305/1957 …, UniProt P03451, strain); assay: SPR; settings: both partners purified
T4 construct: source: bought: E-Enzymes (Protein Sciences in the SPR methods)

[6] = molecular target: recombinant H5-HA, A/Vietnam/1203/2004 (H5N1) (Influenza A virus A/Vietnam/1203/2004 …, UniProt Q5EP31, strain); assay: SPR; settings: both partners purified
[7] = molecular target: recombinant H1-HA (D18-I530), A/California/06/2009 (H1N1)pdm09 (Influenza A virus A/California/06/2009 …, UniProt C3W5S1, strain); assay: SPR; settings: both partners purified
[8] = molecular target: hemagglutinin of A/California/07/2009 (H1N1)pdm09, in the influenza virus antigen standard (Influenza A virus A/California/07/2009 …, UniProt C3W5X2, strain); assay: ELISA; settings: one partner purified
[9] = molecular target: phage displayed HA gene fragment P66-I282 (Influenza A virus A/California/07/2009 …, UniProt C3W5X2); assay: ELISA; settings: both partners purified
[10] = molecular target: phage displayed HA gene fragment D363-G478 (Influenza A virus A/California/07/2009 …, UniProt C3W5X2); assay: ELISA; settings: both partners purified
[11] = molecular target: phage displayed HA gene fragment L193-K225 (Influenza A virus A/California/07/2009 …, UniProt C3W5X2); assay: ELISA; settings: both partners purified
[12] = molecular target: hemagglutinin of A/HongKong/1073/99 (H9N2), in the influenza virus antigen standard (Influenza A virus A/Hong Kong/1073/99 …, UniProt Q9ICY5, strain); assay: ELISA; settings: one partner purified
[13] = molecular target: hemagglutinin of A/HongKong/213/2003 (H5N1), in the influenza virus antigen standard (Influenza A virus A/Hong Kong/213/2003 …, UniProt Q4H2E2, strain); assay: ELISA; settings: one partner purified
[14] = molecular target: hemagglutinin of A/Anhui/01/2005 (H5N1), in the influenza virus antigen standard (Influenza A virus A/Anhui/1/2005 (H5N1), UniProt Q1WDM0, strain); assay: ELISA; settings: one partner purified
[15] = molecular target: hemagglutinin of A/Brisbane/10/2007 (H3N2), in the influenza virus antigen standard (Influenza A virus A/Brisbane/10/2007 …, UniProt A8W8K8, strain); assay: ELISA; settings: one partner purified
[16] = molecular target: hemagglutinin of A/Indonesia/05/2005 (H5N1), in the influenza virus antigen standard (Influenza A virus A/Indonesia/05/2005 …, UniProt A5A5L7, strain); assay: ELISA; settings: one partner purified
[17] = molecular target: T5, recombinant H3-HA, A/Brisbane/10/2007 (H3N2) (Influenza A virus A/Brisbane/10/2007 …, UniProt A8W8K8, strain); assay: SPR; data not shown: sdAbs on immobilised recombinant H3-HA and H7-HA; settings: both partners purified
T5 construct: source: bought: Protein Sciences

[18] = molecular target: T6, recombinant H7-HA, A/Netherlands/219/2003 (H7N7) (Influenza A virus …, UniProt Q6VMK1); assay: as above; settings: both partners purified
T6 construct: source: bought: Protein Sciences

B1: R1a-A5 monovalent (VHH)
VHH: QVQLVESGGGLVQPGGSLRLSCSASGSAVLFSTYPMSWYRQAPGKQRELVAAVTTDGSTSYADYAKGRFTISRDNAKNTVYLQMNSLKPEDTAVYYCNARDGFFNRYDYWGQGTQVTVSS
notes: source: E. coli WK6, periplasmic extract, purified (Talon IMAC, Superdex 75 SEC)
- binding result [1]: no binding
- binding result [2]: no binding
- binding result [3]: no binding
- Kd [4]: 1.56 nM

B2: R1a-B6 monovalent (VHH)
VHH: QVQLVESGGGLVQPGGSLRLSCAASGSFFSRYRMGWYRQAPGEQRELVASIAYDGSTSYADPVKGRFTISRDNANTVHLQMYSLKPDDTAVYYCNLDPPGILYWGQGTQVTVSS
notes: as for B1
- Kd [1]: 4.19 nM
- binding result [2]: no binding
- Kd [4]: 0.36 nM

B3: R2b-E8 (VHH)
VHH: QVQLVESGGGLVQPGGSLRLSCAASGSFFSRYRMGWYRQAPGEQRELVAGITYDDSTNYAGSVKGRFTISRDNAKNTVHLQMNSLKPEDTAVYYCNLNPPGNLYWGQGTQVTVSS
notes: source: E. coli WK6 periplasm, purified (Talon IMAC, Superdex 75 SEC)
- binding result [5]: no binding
- Kd [6]: 0.48 nM
- koff [6]: 0.000143 s⁻¹
- kon [6]: 299000 M⁻¹ s⁻¹
- Kd [7]: 1.74 nM
- koff [7]: 0.000628 s⁻¹
- kon [7]: 361000 M⁻¹ s⁻¹
- binding result [8]: binds
- binding result [9]: no binding
- binding result [10]: no binding
- binding result [11]: no binding
- binding result [12]: binds
- binding result [13]: binds
- binding result [14]: binds
- binding result [15]: no binding
- binding result [16]: binds
- binding result [17]: no binding
- binding result [18]: no binding
